In patent publication US20170290876A1 (Novartis, published 2017):
Each block holds one binder with its values, some of them ahead of it.

Tests used:
human TNFα = biological target: T1, human TNFα (human, UniProt P01375 77-233, biotinylated (site not stated)); test: Biacore SPR, Hu TNFα-biotin, 37 C
T1 construct: also called TNFα-biotin; Hu TNFα-biotin

IL-1β = biological target: T2, IL-1β (human, UniProt P01584 117-269, biotinylated (site not stated)); test: Biacore SPR, IL1β-biotin, 25 C
T2 construct: also called IL1β-biotin

human Factor P [1] = biological target: T3, human Factor P (human, UniProt P27918 28-469, biotinylated (site not stated)); test: Biacore SPR, Hu factor P-biotin, 37 C
T3 construct: also called Factor P-biotin; Hu factor P-biotin

human Factor P [2] = biological target: T3, human Factor P; test: Biacore SPR, Factor P-biotin, 25 C
human Factor P [3] = biological target: T3, human Factor P; test: Biacore SPR; affinity of NVS71T against untagged NVS71
human VEGF [4] = biological target: T4, human VEGF (human, UniProt P15692 207-395, biotinylated (site not stated)); test: Biacore SPR, human VEGF
T4 construct: Biotinylated human VEGF generated internally; also called hVEGF; hVEGF-biotin
T4 sequence: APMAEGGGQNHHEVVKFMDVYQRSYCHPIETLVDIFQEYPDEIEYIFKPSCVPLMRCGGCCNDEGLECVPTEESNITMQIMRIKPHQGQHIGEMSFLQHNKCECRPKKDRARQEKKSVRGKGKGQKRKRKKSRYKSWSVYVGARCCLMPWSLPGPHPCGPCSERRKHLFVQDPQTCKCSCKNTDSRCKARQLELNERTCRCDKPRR

human VEGF [5] = biological target: T4, human VEGF; test: Biacore SPR, hVEGF-biotin, 25 C
human VEGF [6] = biological target: T4, human VEGF; test: Biacore SPR, hVEGF
human VEGF [7] = biological target: T4, human VEGF; test: Biacore SPR, Hu VEGF-biotin, 37 C
Experimental: (§1) In order to determine target kinetics, two different formats were utilized. […] The second format is an anti-fab capture method in which the fab protein samples are captured and the target proteins flowed over at various concentrations.
(§2) The sample compartment which includes the analytes, ligands, and regeneration buffer, is kept at 15° C. All other running conditions were carried out at either 25° C. or 37° C. in 1×HBSE+P buffer. […] Data was collected at 10 Hz and analyzed using the Biacore T200 Evaluation Software (GE Healthcare®). This program uses a global fitting analysis method for the determination of rate and affinity constants for each interaction.

human VEGF [8] = biological target: T4, human VEGF; test: Biacore SPR, Hu VEGF-biotin, 25 C
Experimental: as §1, §2

human VEGF [9] = biological target: T4, human VEGF; test: Biacore SPR, hVEGF-biotin, 37 C

T3 sequence (P27918 28-469 limits assumed): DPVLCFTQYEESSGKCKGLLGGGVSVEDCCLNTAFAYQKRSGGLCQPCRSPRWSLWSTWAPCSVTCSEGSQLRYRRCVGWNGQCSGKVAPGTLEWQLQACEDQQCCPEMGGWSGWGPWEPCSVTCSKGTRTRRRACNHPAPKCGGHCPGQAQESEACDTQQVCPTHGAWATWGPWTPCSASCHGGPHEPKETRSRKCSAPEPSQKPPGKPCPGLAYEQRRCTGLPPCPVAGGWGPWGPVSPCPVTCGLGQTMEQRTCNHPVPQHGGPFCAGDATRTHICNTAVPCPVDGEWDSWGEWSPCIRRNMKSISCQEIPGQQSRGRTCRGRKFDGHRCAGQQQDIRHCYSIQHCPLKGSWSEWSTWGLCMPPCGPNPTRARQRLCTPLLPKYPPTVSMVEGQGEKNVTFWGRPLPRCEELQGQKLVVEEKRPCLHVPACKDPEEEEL
T1 sequence (P01375 77-233 limits assumed): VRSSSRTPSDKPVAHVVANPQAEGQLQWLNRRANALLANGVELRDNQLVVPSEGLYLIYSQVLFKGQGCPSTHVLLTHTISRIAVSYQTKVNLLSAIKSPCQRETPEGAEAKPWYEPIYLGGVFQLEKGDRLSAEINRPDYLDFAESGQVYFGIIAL

Kd (human TNFα): 26 pM
koff (human TNFα): 8.01e-05 s⁻¹
kon (human TNFα): 3.08e+06 M⁻¹ s⁻¹
B1: NVS73 (Fab, V domains shown)
VH: EVQLVESGGGSVQPGGSLRLSCTASGFTISRSYWICWVRQAPGKGLEWVGCIYGDNDITPLYANWAKGRFTISRDTSKNTVYLQMNSLRAEDTATYYCARLGYADYAYDLWGQGTTVTVSS
VL: EIVMTQSPSTLSASVGDRVIITCQSSQSVYGNIWMAWYQQKPGRAPKLLIYQASKLASGVPSRFSGSGSGAEFTLTISSLQPDDFATYYCQGNFNTGDRYAFGQGTKLTVLK
notes: Untagged anti-TNFα Fab

Kd (IL-1β): 14 pM
koff (IL-1β): 6.9e-05 s⁻¹
kon (IL-1β): 4.95e+06 M⁻¹ s⁻¹
B2: NVS75T (Fab, V domains shown)
VH: QVQLVESGGGVVQPGRSLRLSCAASGFTFSVYGMNWVRQAPGKGLEWVAIIWYDGDNQYYADSVKGRFTISRDNSKNTLYLQMNGLRAEDTAVYYCARDLRTGPFDYWGQGTLVTVSS
VL: EIVLTQSPDFQSVTPKEKVTITCRASQSIGSSLHWYQQKPDQSPKLLIKYASQSFSGVPSRFSGSGSGTDFTLTINSLEAEDAAAYYCHQSSSLPFTFGPGTKVDIKR
notes: Anti-IL-1β Fab with HA tag; also called NCS75T

Kd (human VEGF [7]): 7.64 pM
koff (human VEGF [7]): 2.34e-05 s⁻¹
kon (human VEGF [7]): 3.06e+06 M⁻¹ s⁻¹
B9: NVS82 (antibody, human IgG1, kappa, L234A L235A)
heavy: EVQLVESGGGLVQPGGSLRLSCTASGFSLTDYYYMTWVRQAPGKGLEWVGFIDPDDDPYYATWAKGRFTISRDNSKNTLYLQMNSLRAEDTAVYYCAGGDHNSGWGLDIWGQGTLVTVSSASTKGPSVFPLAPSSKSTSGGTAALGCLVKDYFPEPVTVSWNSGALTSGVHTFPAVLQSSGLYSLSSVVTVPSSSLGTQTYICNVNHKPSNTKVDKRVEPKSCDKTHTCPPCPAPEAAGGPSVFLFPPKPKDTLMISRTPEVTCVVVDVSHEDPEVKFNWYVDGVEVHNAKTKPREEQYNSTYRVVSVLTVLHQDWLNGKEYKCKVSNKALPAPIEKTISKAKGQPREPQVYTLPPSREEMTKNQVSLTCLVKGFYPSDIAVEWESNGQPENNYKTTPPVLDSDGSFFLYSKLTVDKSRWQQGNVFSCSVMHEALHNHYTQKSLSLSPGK
light: EIVMTQSPSTLSASVGDRVIITCQASEIIHSWLAWYQQKPGKAPKLLIYLASTLASGVPSRFSGSGSGAEFTLTISSLQPDDFATYYCQNVYLASTNGANFGQGTKLTVLKRTVAAPSVFIFPPSDEQLKSGTASVVCLLNNFYPREAKVQWKVDNALQSGNSQESVTEQDSKDSTYSLSSTLTLSKADYEKHKVYACEVTHQGLSSPVTKSFNRGEC
notes: also called IgG of NVS4

Kd (human VEGF [8]): 6.75 pM
koff (human VEGF [8]): 9.18e-06 s⁻¹
kon (human VEGF [8]): 1.36e+06 M⁻¹ s⁻¹
B10: NVS83 (scFv)
scFv: MEIVMTQSPSTLSASVGDRVIITCQASEIIHSWLAWYQQKPGKAPKLLIYLASTLASGVPSRFSGSGSGAEFTLTISSLQPDDFATYYCQNVYLASTNGANFGQGTKLTVLGGGGGGSGGGGSGGGGSSGGGSEVQLVESGGGLVQPGGSLRLSCTASGFSLTDYYYMTWVRQAPGKGLEWVGFIDPDDDPYYATWAKGRFTISRDNSKNTLYLQMNSLRAEDTAVYYCAGGDHNSGWGLDIWGQGTLVTVSSHHHHHH
notes: also called scFv of NVS4

Kd (human VEGF [9]): 0.9 pM
koff (human VEGF [9]): 1.26e-05 s⁻¹
kon (human VEGF [9]): 1.4e+07 M⁻¹ s⁻¹
B11: NVS1e (Fab)
heavy: EVQLVESGGGLVQPGGSLRLSCTASGFSLTDYYYMTWVRQAPGKGLEWVGFIDPDDDPYYATWAKGRFTISRDNSKNTLYLQMNSLRAEDTAVYYCAGGDHNSGWGLDIWGQGTLVTVSSASTKGPSVFPLAPSSKSTSGGTAALGCLVKDYFPEPVTVSWNSGALTSGVHTFPAVLQSSGLYSLSSVVTVPSSSLGTQTYICNVNHKPSNTKVDKRVEPKSCGS
light: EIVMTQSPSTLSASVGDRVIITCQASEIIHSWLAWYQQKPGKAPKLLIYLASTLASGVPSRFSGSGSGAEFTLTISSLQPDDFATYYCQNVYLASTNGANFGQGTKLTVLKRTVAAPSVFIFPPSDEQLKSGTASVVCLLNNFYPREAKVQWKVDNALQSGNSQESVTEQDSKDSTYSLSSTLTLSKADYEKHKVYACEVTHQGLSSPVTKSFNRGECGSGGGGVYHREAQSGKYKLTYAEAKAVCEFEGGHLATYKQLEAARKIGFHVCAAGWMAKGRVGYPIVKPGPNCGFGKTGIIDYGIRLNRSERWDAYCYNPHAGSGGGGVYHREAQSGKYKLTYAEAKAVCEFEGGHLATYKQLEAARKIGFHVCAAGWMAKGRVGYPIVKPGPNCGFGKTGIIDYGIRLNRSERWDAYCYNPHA
notes: NVS4 with two tandem HA tags at the light chain C-terminus

Kd (human VEGF [5]): 5.64 pM
koff (human VEGF [5]): 0.000172 s⁻¹
kon (human VEGF [5]): 3.05e+07 M⁻¹ s⁻¹
B12: NVS1j (Fab)
heavy: EVQLVESGGGLVQPGGSLRLSCTASGFSLTDYYYMTWVRQAPGKGLEWVGFIDPDDDPYYATWAKGRFTISRDNSKNTLYLQMNSLRAEDTAVYYCAGGDHNSGWGLDIWGQGTLVTVSSASTKGPSVFPLAPSSKSTSGGTAALGCLVKDYFPEPVTVSWNSGALTSGVHTFPAVLQSSGLYSLSSVVTVPSSSLGTQTYICNVNHKPSNTKVDKRVEPKSC
light: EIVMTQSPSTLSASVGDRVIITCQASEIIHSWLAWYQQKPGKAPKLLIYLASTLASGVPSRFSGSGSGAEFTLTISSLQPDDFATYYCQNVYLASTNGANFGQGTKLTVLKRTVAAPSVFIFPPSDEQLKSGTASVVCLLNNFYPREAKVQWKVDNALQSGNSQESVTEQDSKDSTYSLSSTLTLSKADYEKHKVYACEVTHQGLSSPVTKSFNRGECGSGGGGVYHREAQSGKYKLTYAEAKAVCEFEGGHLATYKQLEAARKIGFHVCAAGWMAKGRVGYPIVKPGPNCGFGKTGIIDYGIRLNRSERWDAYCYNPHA
notes: NVS4 with HA tag at the light chain C-terminus

Kd (human VEGF [8]): 419 pM
koff (human VEGF [8]): 0.00168 s⁻¹
kon (human VEGF [8]): 4.01e+06 M⁻¹ s⁻¹
B13: NVS84 (designed binder)
chain: SDLGKKLLEAARAGQDDEVRILMANGADVNTADSTGWTPLHLAVPWGHLEIVEVLLKYGADVNAKDFQGWTPLHLAAAIGHQEIVEVLLKNGADVNAQDKFGKTAFDISIDNGNEDLAEILQKAAGSLPETGGGSGHHHHHH
notes: Untagged anti-VEGF DARPin

The remaining lines, values behind:

B3: NVS71 (Fab, V domains shown)
VH: EVQLVQSGAEVKKPGSSVKVSCKASGGTFSSYAISWVRQAPGQGLEWMGRIIPIFGTANYAQKFQGRVTITADESTSTAYMELSSLRSEDTAVYYCARHGGYSFDSWGQGTLVTVSS
VL: SYELTQPPSVSVAPGQTARISCSGDNLGSKYVDWYQQKPGQAPVLVIYSDNNRPSGIPERFSGSNSGNTATLTISGTQAEDEADYYCQTYTSGNNYLVFGGGTKLTVLG
notes: Untagged anti-Factor P Fab
Kd (human Factor P [1]): 543 pM
koff (human Factor P [1]): 0.00161 s⁻¹
kon (human Factor P [1]): 2.96e+06 M⁻¹ s⁻¹

B4: NVS71T (Fab, V domains shown)
VH: EVQLVQSGAEVKKPGSSVKVSCKASGGTFSSYAISWVRQAPGQGLEWMGRIIPIFGTANYAQKFQGRVTITADESTSTAYMELSSLRSEDTAVYYCARHGGYSFDSWGQGTLVTVSS
VL: SYELTQPPSVSVAPGQTARISCSGDNLGSKYVDWYQQKPGQAPVLVIYSDNNRPSGIPERFSGSNSGNTATLTISGTQAEDEADYYCQTYTSGNNYLVFGGGTKLTVLG
notes: Anti-Factor P Fab with HA tag at heavy chain C-terminus
Kd (human Factor P [2]): 95.5 pM
koff (human Factor P [2]): 0.000412 s⁻¹
kon (human Factor P [2]): 4.31e+06 M⁻¹ s⁻¹
Kd (human Factor P [1]): 95.5 pM
koff (human Factor P [1]): 0.000412 s⁻¹
kon (human Factor P [1]): 4.31e+06 M⁻¹ s⁻¹
Fold improvement (human Factor P [3]): 5.7 fold

B5: NVS37 (Fab)
heavy: EVQLVESGGGLVQPGGSLRLSCTASGFSLTDYYYMTWVRQAPGKGLEWVGFIDPDDDPYYATWAKGRFTISRDNSKNTLYLQMNSLRAEDTAVYYCAGGDHNSGWGLDIWGQGTLVTVSSASTKGPSVFPLAPSSKSTSGGTAALGCLVKDYFPEPVTVSWNSGALTSGVHTFPAVLQSSGLYSLSSVVTVPSSSLGTQTYICNVNHKPSNTKVDKRVEPKSCGSGGGGVYHREAQSGKYKLTYAEAKAVCEFEGGHLCTYKQLEAARKIGFHVCAAGWMAKGRVGYPIVKPGPNCGFGKTGIIDYGIRLNRSERWDAYCCNPHA
light: EIVMTQSPSTLSASVGDRVIITCQASEIIHSWLAWYQQKPGKAPKLLIYLASTLASGVPSRFSGSGSGAEFTLTISSLQPDDFATYYCQNVYLASTNGANFGQGTKLTVLKRTVAAPSVFIFPPSDEQLKSGTASVVCLLNNFYPREAKVQWKVDNALQSGNSQESVTEQDSKDSTYSLSSTLTLSKADYEKHKVYACEVTHQGLSSPVTKSFNRGEC
notes: NVS4 Fab with HA11.1 tag
Kd (human VEGF [4]): 3.07 pM
koff (human VEGF [4]): 7.21e-05 s⁻¹
kon (human VEGF [4]): 2.35e+07 M⁻¹ s⁻¹

B6: NVS1g (Fab)
heavy: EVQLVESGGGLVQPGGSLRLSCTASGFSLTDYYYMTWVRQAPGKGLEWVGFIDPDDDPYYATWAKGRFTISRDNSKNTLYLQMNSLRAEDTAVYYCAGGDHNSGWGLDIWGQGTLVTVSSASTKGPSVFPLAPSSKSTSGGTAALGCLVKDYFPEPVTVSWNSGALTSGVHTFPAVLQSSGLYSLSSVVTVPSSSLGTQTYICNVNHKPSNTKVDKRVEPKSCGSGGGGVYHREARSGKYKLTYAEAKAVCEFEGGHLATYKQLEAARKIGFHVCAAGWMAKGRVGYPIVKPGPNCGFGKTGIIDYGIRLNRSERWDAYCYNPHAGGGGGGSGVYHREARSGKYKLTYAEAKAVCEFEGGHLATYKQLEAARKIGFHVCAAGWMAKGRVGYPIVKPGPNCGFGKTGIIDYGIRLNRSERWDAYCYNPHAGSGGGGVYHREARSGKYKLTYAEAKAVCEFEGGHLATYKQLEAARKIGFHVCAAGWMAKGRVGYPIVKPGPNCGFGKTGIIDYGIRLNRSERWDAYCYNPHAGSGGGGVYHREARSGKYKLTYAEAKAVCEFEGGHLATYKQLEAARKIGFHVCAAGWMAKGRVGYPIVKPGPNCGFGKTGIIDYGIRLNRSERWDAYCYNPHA
light: EIVMTQSPSTLSASVGDRVIITCQASEIIHSWLAWYQQKPGKAPKLLIYLASTLASGVPSRFSGSGSGAEFTLTISSLQPDDFATYYCQNVYLASTNGANFGQGTKLTVLKRTVAAPSVFIFPPSDEQLKSGTASVVCLLNNFYPREAKVQWKVDNALQSGNSQESVTEQDSKDSTYSLSSTLTLSKADYEKHKVYACEVTHQGLSSPVTKSFNRGEC
notes: NVS4 with four tandem HA tags at the heavy chain C-terminus
Kd (human VEGF [5]): 5.46 pM
kon (human VEGF [5]): 614000 M⁻¹ s⁻¹

B7: NVS36 (Fab)
heavy: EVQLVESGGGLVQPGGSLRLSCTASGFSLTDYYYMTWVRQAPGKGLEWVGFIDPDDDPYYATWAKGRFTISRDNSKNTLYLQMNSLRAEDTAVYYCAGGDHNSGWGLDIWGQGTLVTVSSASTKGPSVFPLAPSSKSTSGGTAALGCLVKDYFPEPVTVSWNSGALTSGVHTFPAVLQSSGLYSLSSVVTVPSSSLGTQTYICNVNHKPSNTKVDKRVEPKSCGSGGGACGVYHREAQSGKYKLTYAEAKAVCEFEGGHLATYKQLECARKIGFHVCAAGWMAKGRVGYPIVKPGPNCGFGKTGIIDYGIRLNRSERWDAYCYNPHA
light: EIVMTQSPSTLSASVGDRVIITCQASEIIHSWLAWYQQKPGKAPKLLIYLASTLASGVPSRFSGSGSGAEFTLTISSLQPDDFATYYCQNVYLASTNGANFGQGTKLTVLKRTVAAPSVFIFPPSDEQLKSGTASVVCLLNNFYPREAKVQWKVDNALQSGNSQESVTEQDSKDSTYSLSSTLTLSKADYEKHKVYACEVTHQGLSSPVTKSFNRGEC
notes: NVS4 Fab with HA11 tag; also called NVS4 linked to tag NVS-A
Kd (human VEGF [6]): 4.13 pM
koff (human VEGF [6]): 0.000257 s⁻¹
kon (human VEGF [6]): 6.23e+07 M⁻¹ s⁻¹
Kd (human VEGF [4]): 0.656 pM
koff (human VEGF [4]): 2.5e-05 s⁻¹
kon (human VEGF [4]): 3.81e+07 M⁻¹ s⁻¹

B8: NVS1h (Fab)
heavy: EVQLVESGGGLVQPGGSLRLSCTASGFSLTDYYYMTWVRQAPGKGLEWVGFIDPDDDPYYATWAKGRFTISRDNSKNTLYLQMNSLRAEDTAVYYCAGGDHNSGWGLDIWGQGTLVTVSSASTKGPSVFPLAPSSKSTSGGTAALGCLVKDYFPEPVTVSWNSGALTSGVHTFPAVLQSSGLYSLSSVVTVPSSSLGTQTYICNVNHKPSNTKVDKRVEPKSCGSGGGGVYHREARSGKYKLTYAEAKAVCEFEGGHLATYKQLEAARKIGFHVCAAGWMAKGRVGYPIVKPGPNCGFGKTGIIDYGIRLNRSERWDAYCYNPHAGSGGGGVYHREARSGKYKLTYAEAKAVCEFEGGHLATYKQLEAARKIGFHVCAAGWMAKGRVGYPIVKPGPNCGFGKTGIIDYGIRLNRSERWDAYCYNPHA
light: EIVMTQSPSTLSASVGDRVIITCQASEIIHSWLAWYQQKPGKAPKLLIYLASTLASGVPSRFSGSGSGAEFTLTISSLQPDDFATYYCQNVYLASTNGANFGQGTKLTVLKRTVAAPSVFIFPPSDEQLKSGTASVVCLLNNFYPREAKVQWKVDNALQSGNSQESVTEQDSKDSTYSLSSTLTLSKADYEKHKVYACEVTHQGLSSPVTKSFNRGEC
notes: NVS4 with tandem HA tags at the heavy chain C-terminus
Kd (human VEGF [5]): 0.558 pM
koff (human VEGF [5]): 8.76e-06 s⁻¹
kon (human VEGF [5]): 1.57e+07 M⁻¹ s⁻¹
